Patent US20140349340A1, “MBTH-LIKE PROTEINS IN THE PRODUCTION OF SEMI SYNTHETIC ANTIBIOTICS” (DSM SINOCHEM PHARMACEUTICALS NETHERLANDS B.V., priority 2012, published 2014)

B1: CepB_M2_A: purified adenylation domain of CepB (PCZA363.4) module M2 (SEQ ID NO: 4); Amycolatopsis orientalis (protein, listed as Amycolatopsis orientalis)
chain: LPVGRLGVTSEPARASVVERWNSTGEAANRTSVLELFRQQADASPDAVAVMDAARTLSYADLDRESDRLAGYLAAMGVRRGDRVGVVMERGTDLFVALLAVWKAGAAQVPVNVDYPAERIERMLADAGASVAVCLEATRKAVPDGVEPVVMDVPAIDGVRHEAPQVTVGAHDLAYVMYTSGSTGVPKGVAVPHGSVAALASDPGWSQGPDDCVLLHASHAFDASLVEIWVPLVNGSRVMVAEPGAVDAERLREAISRGVTTVHLTAGAFRAVAEESPDSFTGLREILTGGDAVPLASVVRMRRACPDVRVRQLYGPTEITLCATWHVIEPGAETGDTLPIGRPLAGRQAYVLDAFLQPVAPNVTGELYIAGAGLAHGYLGNNGSTSERFIANPFASGERMYRTGDLARWTDQGELLFAGRADSQVKIRGYRVEPGEIEVALTEVPHVAQAVVVAREDHPGDKRLIAYVTAEEGPALAADAVREHLAARMPEFMVPAVVLVLDSFPLTLNGKIDRAALPAPEFTGKAAGREPRTETERVLC
B2: StaC_M2_A: purified adenylation domain of StaC module M2 (SEQ ID NO: 8); Streptomyces toyocaensis (protein, listed as Streptomyces toyocaensis)
chain: LPVGRLGVTSDATRTSEVERWNATGEAAGGASVVELFRRRSAGTPDAVAVVDGDRTLSYGDLDRESDRLAGRLAETGVRRGDHVGVVLERGADLFVAFLAVWKAGAAYVPVHVDYPPVRIERMLADAGVTVAVCAEGTRNAVPDGLEPVPVDAPWAGETRHETPTVTARDAAYVMYTSGSTGEPKGIVVPHGSVAALAGDPGWALDADDCVLMHASHAFDASLFEIWAPLVRGARVMVAEPGAVDTQRLREAVARGVTTVHLTAGSFRVLAEESPGSFDGLREILTGGDVVPLASVAQLRRACPDVRVRHLYGPTETTLCGTWHLLEPGDEPGDVLPIGRPLAGRRAYVLDAFLQPVAPNVTGELYLAGVGLALGYLGARGATSERFVADPFVPGERMYRTGDLARRNDRGELLFAGRADAQVKIRGYRVEPTEIETVLAEAPQVAQTVVVAREDGPGEKRLIAYAIAEPDQVLDPEALREHLAARLPEFMVPAAVVVLDDFPLTINGKIDREALPAPEFSAKPAGREPRTEAERVLC
B3: TycA: control protein; first one-module-bearing peptide synthetase for synthesis of tyrocidine by Bacillus brevis, phenylalanine-specific adenylation domain (protein, UniProt P09095 1-1088, looked up)
Tyrocidine synthase 1: MLANQANLIDNKRELEQHALVPYAQGKSIHQLFEEQAEAFPDRVAIVFENRRLSYQELNRKANQLARALLEKGVQTDSIVGVMMEKSIENVIAILAVLKAGGAYVPIDIEYPRDRIQYILQDSQTKIVLTQKSVSQLVHDVGYSGEVVVLDEEQLDARETANLHQPSKPTDLAYVIYTSGTTGKPKGTMLEHKGIANLQSFFQNSFGVTEQDRIGLFASMSFDASVWEMFMALLSGASLYILSKQTIHDFAAFEHYLSENELTIITLPPTYLTHLTPERITSLRIMITAGSASSAPLVNKWKDKLRYINAYGPTETSICATIWEAPSNQLSVQSVPIGKPIQNTHIYIVNEDLQLLPTGSEGELCIGGVGLARGYWNRPDLTAEKFVDNPFVPGEKMYRTGDLAKWLTDGTIEFLGRIDHQVKIRGHRIELGEIESVLLAHEHITEAVVIAREDQHAGQYLCAYYISQQEATPAQLRDYAAQKLPAYMLPSYFVKLDKMPLTPNDKIDRKALPEPDLTANQSQAAYHPPRTETESILVSIWQNVLGIEKIGIRDNFYSLGGDSIQAIQVVARLHSYQLKLETKDLLNYPTIEQVALFVKSTTRKSDQGIIAGNVPLTPIQKWFFGKNFTNTGHWNQSSVLYRPEGFDPKVIQSVMDKIIEHHDALRMVYQHENGNVVQHNRGLGGQLYDFFSYNLTAQPDVQQAIEAETQRLHSSMNLQEGPLVKVALFQTLHGDHLFLAIHHLVVDGISWRILFEDLATGYAQALAGQAISLPEKTDSFQSWSQWLQEYANEADLLSEIPYWESLESQAKNVSLPKDYEVTDCKQKSVRNMRIRLHPEETEQLLKHANQAYQTEINDLLLAALGLAFAEWSKLAQIVIHLEGHGREDIIEQANVARTVGWFTSQYPVLLDLKQTAPLSDYIKLTKENMRKIPRKGIGYDILKHVTLPENRGSLSFRVQPEVTFNYLGQFDADMRTELFTRSPYSGGNTLGADGKNNLSPESEVYTALNITGLIEGGELVLTFSYSSEQYREESIQQLSQSYQKHLLAIIAHCTEKKEVERTPSDFSVKGLQMEEMDDIFELLANTLR
B4: BpsB_M2_A: purified adenylation domain of BpsB module M2 (SEQ ID NO: 5); Amycolatopsis balhimycina (protein, listed as Amycolatopsis balhimycina)
chain: VGRLGVTSEPTRAAVVERWNSTGEAAAETSVLELFRRQAGASPDAVAVVAGERTLSYADLDRESDRLAGHLAGIGVGRGDRVGVVMTRGADLFVALLGVWKAGAAQVPVNVDYPAERIERMLADVGASVAVCVEATRKAVPDGVEPVVVDLPVIGGVRPEAPPVTVGAHDVAYVMYTSGSTGVPKAVAVPHGSVAALASDPGWSQGPGDCVLLHASHAFDASLVEIWVPLVSGARVLVAEPGTVDAERLREAVSRGVTTVHLTAGAFRAVAEESPDSFIGLREILTGGDAVPLASVVRMRQACPDVRVRQLYGPTEITLCATWLVLEPGAATGDVLPIGRPLAGRQAYVLDAFLQPVAPNVTGELYLAGAGLAHGYLGNTAATSERFVANPFSGGGRMYRTGDLARWTDQGELVFAGRADSQVKIRGYRVEPGEVEVALTEVPHVAQAVVVAREGQPGEKRLIAYVTAEAGSALESAAVRAHLATRLPEFMVPSVVVVLESFPLTLNGKIDRAALPAPEFAGKAAGREPRTEAERVLCG

Tests used:
Format in all cases: biochemical
[1] = PPi release assay, adenylation activity with L-hydroxyphenylglycine; settings: substrate L-hydroxyphenylglycine
Source text: (§1) These assays use inorganic pyrophosphatases to convert PPi produced during aminoacyl-AMP formation to orthophosphate (Pi). To measure Pi concentrations some of these assays use molybdate/malachite green reagent for colorimetric detection (McQuade et al. 2008) or, as used in the context of the present invention, a shift in absorbance maximum by conversion of 7-methyl-6-thioguanosine (MESG) by purine nucleoside phosphorylase (Ehmann D. E. et al. (Proc. Natl. Acad. Sci. (2000) 97, 2509-2514) or Daniel & Aldrich (Anal. Biochem. (2010) 404, 56-63)).
(§2) To determine the adenylation activity of the adenylation domains, the Enzchek® pyrophosphate assay kit (Life Technologies) was used as described by Ehmann D. E. et al. (Proc Nat Acad Science (2000) 97, 2509-2514) with small modifications. The reactions were performed 96 wells UV/Vis transparent plates (BD Falcon). The reaction mixture comprises 50 mM HEPES pH 8.0, 10 mM MgCl2, 5 mM ATP, 75 mM DTT, 0.03 U Inorganic Pyrophosphatase (IP), 1 U Purine Nucleoside Phosphorylase (PNP) and 0.2 mM MESG in a volume of 70 μl. Next 20 μl (around 0.5-2 μM final concentration) of purified A(T) domain, with or without co-purification of the MbtH like helper protein was added and the reaction was pre-incubated for 15 minutes at RT to reduce contaminating Pi. Following the pre-incubation, 10 μl of a 10 mM or 1 mM solution of the appropriate amino acid depending on the performed specificity determination was added to initiate the adenylation reaction and the absorbance at 360 nm was measured using a TECAN I Control spectrophotometer. Absorbance measurements were made every 5 to 10 min over a period of up to 240 min. A reaction with addition of 10 μl MilliQ water instead was used to determine and subtract the background absorbance. As substrates the following amino acids were used: D- or L-phenylalanine, D- or L-hydroxyphenylglycine, D- or L-phenylglycine, L-tryptophan, L-valine, L-cysteine, and L-leucine.

[2] = PPi release assay, adenylation activity with D-hydroxyphenylglycine; settings: substrate D-hydroxyphenylglycine
Source text: as §1, §2

[3] = PPi release assay, adenylation activity with L-phenylalanine; settings: substrate L-phenylalanine
Source text: as §1, §2

[4] = PPi release assay, adenylation activity with D-phenylalanine; settings: substrate D-phenylalanine
Source text: as §1, §2

[5] = PPi release assay, adenylation activity with L-tryptophan; settings: substrate L-tryptophan; protein alone; data not shown
Source text: as §1
(§3) To determine the adenylation activity of the adenylation domains, the Enzchek® pyrophosphate assay kit (Life Technologies) was used as described by Ehmann D. E. et al. (Proc Nat Acad Science (2000) 97, 2509-2514) with small modifications. The reactions were performed 96 wells UV/Vis transparent plates (BD Falcon). […] Following the pre-incubation, 10 μl of a 10 mM or 1 mM solution of the appropriate amino acid depending on the performed specificity determination was added to initiate the adenylation reaction and the absorbance at 360 nm was measured using a TECAN I Control spectrophotometer. Absorbance measurements were made every 5 to 10 min over a period of up to 240 min. A reaction with addition of 10 μl MilliQ water instead was used to determine and subtract the background absorbance. […]

[6] = PPi release assay, adenylation activity with L-valine; settings: substrate L-valine; protein alone; data not shown
Source text: as §1, §3

[7] = PPi release assay, adenylation activity with L-leucine; settings: substrate L-leucine; protein alone; data not shown
Source text: as §1, §3

[8] = PPi release assay, adenylation activity with L-cysteine; settings: substrate L-cysteine; protein alone; data not shown
Source text: as §1, §3

[9] = co-purified with MbtH-like protein Tcp13
[10] = protein alone, without MbtH-like protein

Molecule | adenylation activity (absorption 360 nm, PPi release assay) [1, 9] | adenylation activity (absorption 360 nm, PPi release assay) [1, 10] | adenylation activity (absorption 360 nm, PPi release assay) [2, 9] | adenylation activity (absorption 360 nm, PPi release assay) [2, 10] | adenylation activity (absorption 360 nm, PPi release assay) [3, 9] | adenylation activity (absorption 360 nm, PPi release assay) [3, 10] | adenylation activity (absorption 360 nm, PPi release assay) [4, 9] | adenylation activity (absorption 360 nm, PPi release assay) [4, 10] | adenylation activity (PPi release assay) [5] | adenylation activity (PPi release assay) [6] | adenylation activity (PPi release assay) [7] | adenylation activity (PPi release assay) [8]
B1 | clear adenylation activity | No adenylation activity | clear adenylation activity | No adenylation activity | no activity | No adenylation activity | no activity | No adenylation activity | – | – | – | –
B2 | clear adenylation activity | No adenylation activity | clear adenylation activity | No adenylation activity | no activity | No adenylation activity | no activity | No adenylation activity | – | – | – | –
B3 | – | no adenylation activity | – | no adenylation activity | – | accepted as substrate | – | accepted as substrate | similarly recognized and adenylated | similarly recognized and adenylated | similarly recognized and adenylated | no adenylation activity
B4 | clear adenylation activity | No adenylation activity | clear adenylation activity | No adenylation activity | no activity | No adenylation activity | no activity | No adenylation activity | – | – | – | –
